Reference: US20240287154A1, “MC3R AGONIST PEPTIDES” (The Regents of the University of Michigan, priority 2021, published 2024)
Non-standard residues stand in square brackets, D forms with d. Bip = N[C@@H](Cc1ccc(-c2ccccc2)cc1)C(=O)O; Phe(4-Br) = N[C@@H](Cc1ccc(Br)cc1)C(=O)O; Phe(4-Cl) = N[C@@H](Cc1ccc(Cl)cc1)C(=O)O; Nle = CCCC[C@H](N)C(=O)O; dAbu = CC[C@@H](N)C(=O)O

B1: CTX-1144 (peptide)
peptide: Ac-[Nle][dAbu]HFR[dW]DRFG-OH
SMILES: CCCC[C@H](NC(C)=O)C(=O)N[C@H](CC)C(=O)N[C@@H](Cc1c[nH]cn1)C(=O)N[C@@H](Cc1ccccc1)C(=O)N[C@@H](CCCNC(=N)N)C(=O)N[C@H](Cc1c[nH]c2ccccc12)C(=O)N[C@@H](CC(=O)O)C(=O)N[C@@H](CCCNC(=N)N)C(=O)N[C@@H](Cc1ccccc1)C(=O)NCC(=O)O
B2: CTX-1164 (peptide)
peptide: Ac-[Nle][dA]HFR[dW]GKPV-NH2
SMILES: CCCC[C@H](NC(C)=O)C(=O)N[C@H](C)C(=O)N[C@@H](Cc1c[nH]cn1)C(=O)N[C@@H](Cc1ccccc1)C(=O)N[C@@H](CCCNC(=N)N)C(=O)N[C@H](Cc1c[nH]c2ccccc12)C(=O)NCC(=O)N[C@@H](CCCCN)C(=O)N1CCC[C@H]1C(=O)N[C@H](C(N)=O)C(C)C
B3: CTX-1163 (peptide)
peptide: Ac-[Nle][dA]HFR[dW]DR-NH2
SMILES: CCCC[C@H](NC(C)=O)C(=O)N[C@H](C)C(=O)N[C@@H](Cc1c[nH]cn1)C(=O)N[C@@H](Cc1ccccc1)C(=O)N[C@@H](CCCNC(=N)N)C(=O)N[C@H](Cc1c[nH]c2ccccc12)C(=O)N[C@@H](CC(=O)O)C(=O)N[C@@H](CCCNC(=N)N)C(N)=O
B4: CTX-1166 (peptide)
peptide: Ac-[Nle][dA]H[Phe(4-Cl)]R[dW]DRFG-OH
SMILES: CCCC[C@H](NC(C)=O)C(=O)N[C@H](C)C(=O)N[C@@H](Cc1c[nH]cn1)C(=O)N[C@@H](Cc1ccc(Cl)cc1)C(=O)N[C@@H](CCCNC(=N)N)C(=O)N[C@H](Cc1c[nH]c2ccccc12)C(=O)N[C@@H](CC(=O)O)C(=O)N[C@@H](CCCNC(=N)N)C(=O)N[C@@H](Cc1ccccc1)C(=O)NCC(=O)O
B5: CTX-1168 (peptide)
peptide: Ac-[Nle][dA]H[Bip]R[dW]DRFG-NH2
SMILES: CCCC[C@H](NC(C)=O)C(=O)N[C@H](C)C(=O)N[C@@H](Cc1c[nH]cn1)C(=O)N[C@@H](Cc1ccc(-c2ccccc2)cc1)C(=O)N[C@@H](CCCNC(=N)N)C(=O)N[C@H](Cc1c[nH]c2ccccc12)C(=O)N[C@@H](CC(=O)O)C(=O)N[C@@H](CCCNC(=N)N)C(=O)N[C@@H](Cc1ccccc1)C(=O)NCC(N)=O
B6: CTX-1122 (peptide)
peptide: Ac-[Nle][dA]HFR[dW]DRFG-OH
SMILES: CCCC[C@H](NC(C)=O)C(=O)N[C@H](C)C(=O)N[C@@H](Cc1c[nH]cn1)C(=O)N[C@@H](Cc1ccccc1)C(=O)N[C@@H](CCCNC(=N)N)C(=O)N[C@H](Cc1c[nH]c2ccccc12)C(=O)N[C@@H](CC(=O)O)C(=O)N[C@@H](CCCNC(=N)N)C(=O)N[C@@H](Cc1ccccc1)C(=O)NCC(=O)O
B7: CTX-1165 (peptide)
peptide: Ac-[Nle][dA]H[Phe(4-Br)]R[dW]DRFG-OH
SMILES: CCCC[C@H](NC(C)=O)C(=O)N[C@H](C)C(=O)N[C@@H](Cc1c[nH]cn1)C(=O)N[C@@H](Cc1ccc(Br)cc1)C(=O)N[C@@H](CCCNC(=N)N)C(=O)N[C@H](Cc1c[nH]c2ccccc12)C(=O)N[C@@H](CC(=O)O)C(=O)N[C@@H](CCCNC(=N)N)C(=O)N[C@@H](Cc1ccccc1)C(=O)NCC(=O)O

Target: human MC3R (human, UniProt P41968 1-323)
Experiment: cell-based or functional assay

Sequence of human MC3R (P41968 whole entry): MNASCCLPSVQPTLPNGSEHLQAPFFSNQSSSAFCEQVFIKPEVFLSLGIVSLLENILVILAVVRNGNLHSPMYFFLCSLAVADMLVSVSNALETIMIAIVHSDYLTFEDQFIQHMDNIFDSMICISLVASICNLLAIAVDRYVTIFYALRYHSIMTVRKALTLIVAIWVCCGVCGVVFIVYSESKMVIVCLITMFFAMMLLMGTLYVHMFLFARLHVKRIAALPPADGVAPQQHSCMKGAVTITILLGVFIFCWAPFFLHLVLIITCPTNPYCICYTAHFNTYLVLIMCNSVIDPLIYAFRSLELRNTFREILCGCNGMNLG

Going from B1 to B2, the “MC3R cAMP (EC50)” value falls from 6.6 nM to 1.5 nM (4.4-fold).

First: B3
Second: B4
The “MC3R cAMP (EC50)” value of the first is 12-fold higher: 19.4 nM for the first, 1.6 nM for the second.

Going from B5 to B6, the “MC3R cAMP (EC50)” value falls from 28.6 nM to 1.2 nM (24-fold).

With B7 the “MC3R cAMP (EC50)” value was 3 nM.

Compared with B1, B2 is lower in “MC3R selectivity (relative to MC4R)” value: 2630 for the first, 83 for the second.

First: B3
Second: B4
The “MC3R selectivity (relative to MC4R)” value of the first is lower: 282 for the first, 3100 for the second.

Going from B5 to B6, the “MC3R selectivity (relative to MC4R)” value rises from 485 to 7700.

With B7 the “MC3R selectivity (relative to MC4R)” value was 5600.
